In patent publication US20180155451A1 (published 2018) one finds He/Con_1a and He/Con_2b data, which are given here for 21 molecules.

Test [1] has as its target T1, FcγRIa extracellular domain with C-terminal His tag (human, UniProt P12314 16-292).
T1 construct: extracellular domain; Expressed in FreeStyle293 cells; analyte in the Biacore assay; also called FcgRI; 1a; not shown: His tag at the C terminus
The test is described as follows: SPR (Biacore), antibody captured on antigen-peptide chip, FcγR as analyte; relative binding. Background: In SPR one partner is held on a chip, and binding of the other changes the refractive index at the surface.
T1 sequence (P12314 16-292): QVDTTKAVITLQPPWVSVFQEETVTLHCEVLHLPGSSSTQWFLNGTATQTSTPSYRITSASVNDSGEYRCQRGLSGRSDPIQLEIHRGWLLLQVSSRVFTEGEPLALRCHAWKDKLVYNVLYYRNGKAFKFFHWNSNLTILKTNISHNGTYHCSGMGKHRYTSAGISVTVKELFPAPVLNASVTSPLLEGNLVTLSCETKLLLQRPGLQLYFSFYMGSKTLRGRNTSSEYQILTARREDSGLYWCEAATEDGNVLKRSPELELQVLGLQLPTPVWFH

Test [2] concerns the target T2, FcγRIIb extracellular domain with C-terminal His tag (human, UniProt P31994 43-217).
T2 construct: extracellular domain; Expressed in FreeStyle293 cells; analyte in the Biacore assay; also called FcgRIIb; 2b; not shown: His tag at the C terminus
T2 sequence (looked up): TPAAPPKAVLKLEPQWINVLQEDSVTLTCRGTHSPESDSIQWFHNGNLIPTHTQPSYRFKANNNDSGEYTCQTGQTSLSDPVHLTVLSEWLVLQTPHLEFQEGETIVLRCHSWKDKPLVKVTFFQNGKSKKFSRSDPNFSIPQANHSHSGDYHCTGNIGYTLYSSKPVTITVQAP
The description is as above.

The target in test [3] is T3, FcγRIa extracellular domain with C-terminal His tag (human, UniProt P12314 16-292).
T3 construct: extracellular domain; Soluble receptor expressed in FreeStyle293 cells and used as analyte in Biacore; also called FcgRI; 1a; not shown: His tag at the C terminus
The test is described as follows: SPR Biacore, relative binding amount.
T3 sequence (P12314 16-292): as the sequence (P12314 16-292) above

Test [4] addresses T4, FcγRIIb extracellular domain with C-terminal His tag (human, UniProt P31994 43-217).
T4 construct: extracellular domain; Soluble receptor expressed in FreeStyle293 cells and used as analyte in Biacore; also called FcgRIIb; 2b; not shown: His tag at the C terminus
T4 sequence (looked up): T2 sequence (looked up)
The test is described as follows: SPR Biacore, relative binding amount.

B1: GpH7-A5/GpH7-B3 variant Y300_02A/GpL16-k0 (He Ab) (antibody, human IgG1, kappa)
heavy 1: not shown
heavy 2: not shown
light: DIVMTQSPLSLPVTPGEPASISCQASESLVHSNRNTYLHWYLQKPGQSPQLLIYKVSNRFSGVPDRFSGSGSGTDFTLKISRVEAEDVGVYYCSQNTHVPPTFGQGTKVEIERTVAAPSVFIFPPSDEQLKSGTASVVCLLNNFYPREAKVQWKVDNALQSGNSQESVTEQDSKDSTYSLSSTLTLSKADYEKHKVYACEVTHQGLSSPVTKSFNRGEC
notes: Heterodimerized anti-glypican-3 IgG1; the mutation stands in the GpH7-B3 chain only
Take B1: the He/Con_1a in test [1] was 112 % of GpH7-A5/GpH7-B3/GpL16-k0 (=100). In test [2], the He/Con_2b was 69.2 % of GpH7-A5/GpH7-B3/GpL16-k0 (=100).

B2: GpH7-A5/GpH7-B3 variant Y300_12R/GpL16-k0 (He Ab) (antibody, human IgG1, kappa)
heavy 1: not shown
heavy 2: not shown
light: B1 light
notes: as for B1
Consider B2, for which the He/Con_1a in test [1] is 105 % of GpH7-A5/GpH7-B3/GpL16-k0 (=100). The He/Con_2b in test [2] was 41.2 % of GpH7-A5/GpH7-B3/GpL16-k0 (=100).

B3: GpH7-A5/GpH7-B3 variant E269_13S/GpL16-k0 (He Ab) (antibody, human IgG1, kappa)
heavy 1: not shown
heavy 2: not shown
light: B1 light
notes: as for B1
With B3, the He/Con_1a in test [1] was 103 % of GpH7-A5/GpH7-B3/GpL16-k0 (=100). Also, in test [2], the He/Con_2b was 47.8 % of GpH7-A5/GpH7-B3/GpL16-k0 (=100).

B4: heterodimerized antibody GpH7-A5/GpH7-B3 variant E333_13S/GpL16-k0 (antibody, human IgG1, kappa)
heavy 1: not shown
heavy 2: not shown
light: B1 light
notes: Substitution in only one H chain (GpH7-B3 side); also called He Ab
For B4, the He/Con_1a in test [3] was 103 % of GpH7-A5/GpH7-B3/GpL16-k0 (=100). For the same molecule, the He/Con_2b in test [4] is 81.8 % of GpH7-A5/GpH7-B3/GpL16-k0 (=100).

B5: GpH7-A5/GpH7-B3 variant S324_02A/GpL16-k0 (He Ab) (antibody, human IgG1, kappa)
heavy 1: not shown
heavy 2: not shown
light: B1 light
notes: as for B1
For B5, the He/Con_1a in test [1] is 103 % of GpH7-A5/GpH7-B3/GpL16-k0 (=100). In addition, in test [2], the He/Con_2b was 78.3 % of GpH7-A5/GpH7-B3/GpL16-k0 (=100).

B6: GpH7-A5/GpH7-B3 variant E269_08L/GpL16-k0 (He Ab) (antibody, human IgG1, kappa)
heavy 1: not shown
heavy 2: not shown
light: B1 light
notes: as for B1
For B6, the He/Con_1a in test [1] was 104 % of GpH7-A5/GpH7-B3/GpL16-k0 (=100). For the same molecule, the He/Con_2b in test [2] was 42.9 % of GpH7-A5/GpH7-B3/GpL16-k0 (=100).

B7: GpH7-A5/GpH7-B3 variant S324_07I/GpL16-k0 (He Ab) (antibody, human IgG1, kappa)
heavy 1: not shown
heavy 2: not shown
light: B1 light
notes: as for B1
With B7, the He/Con_1a in test [1] was 102 % of GpH7-A5/GpH7-B3/GpL16-k0 (=100). The He/Con_2b in test [2] is 95.7 % of GpH7-A5/GpH7-B3/GpL16-k0 (=100).

B8: GpH7-A5/GpH7-B3 variant Y300_07I/GpL16-k0 (He Ab) (antibody, human IgG1, kappa)
heavy 1: not shown
heavy 2: not shown
light: B1 light
notes: as for B1
Turning to B8, in test [1], the He/Con_1a was 108 % of GpH7-A5/GpH7-B3/GpL16-k0 (=100). The He/Con_2b in test [2] was 74.5 % of GpH7-A5/GpH7-B3/GpL16-k0 (=100).

B9: GpH7-A5/GpH7-B3 variant S298_19Q/GpL16-k0 (He Ab) (antibody, human IgG1, kappa)
heavy 1: not shown
heavy 2: not shown
light: B1 light
notes: as for B1
B9: in test [1], the He/Con_1a is 109 % of GpH7-A5/GpH7-B3/GpL16-k0 (=100). Further, the He/Con_2b in test [2] is 73.3 % of GpH7-A5/GpH7-B3/GpL16-k0 (=100).

B10: heterodimerized antibody GpH7-A5/GpH7-B3 variant E333_14T/GpL16-k0 (antibody, human IgG1, kappa)
heavy 1: not shown
heavy 2: not shown
light: B1 light
notes: as for B4
Consider B10, for which, in test [3], the He/Con_1a was 102 % of GpH7-A5/GpH7-B3/GpL16-k0 (=100). The He/Con_2b in test [4] is 86.1 % of GpH7-A5/GpH7-B3/GpL16-k0 (=100).

B11: heterodimerized antibody GpH7-A5/GpH7-B3 variant I336_01G/GpL16-k0 (antibody, human IgG1, kappa)
heavy 1: not shown
heavy 2: not shown
light: B1 light
notes: as for B4
Regarding B11, the He/Con_1a in test [3] was 109 % of GpH7-A5/GpH7-B3/GpL16-k0 (=100). Besides, the He/Con_2b in test [4] is 90.1 % of GpH7-A5/GpH7-B3/GpL16-k0 (=100).

B12: heterodimerized antibody GpH7-A5/GpH7-B3 variant E333_11K/GpL16-k0 (antibody, human IgG1, kappa)
heavy 1: not shown
heavy 2: not shown
light: B1 light
notes: as for B4
Regarding B12, in test [3], the He/Con_1a is 102 % of GpH7-A5/GpH7-B3/GpL16-k0 (=100). Moreover, in test [4], the He/Con_2b was 80.6 % of GpH7-A5/GpH7-B3/GpL16-k0 (=100).

B13: GpH7-A5/GpH7-B3 variant E269_11K/GpL16-k0 (He Ab) (antibody, human IgG1, kappa)
heavy 1: not shown
heavy 2: not shown
light: B1 light
notes: as for B1
As for B13, in test [1], the He/Con_1a was 95.2 % of GpH7-A5/GpH7-B3/GpL16-k0 (=100). Also, the He/Con_2b in test [2] was 17.8 % of GpH7-A5/GpH7-B3/GpL16-k0 (=100).

B14: GpH7-A5/GpH7-B3 variant K326_12R/GpL16-k0 (He Ab) (antibody, human IgG1, kappa)
heavy 1: not shown
heavy 2: not shown
light: B1 light
notes: as for B1
Consider B14, for which the He/Con_1a in test [1] is 100 % of GpH7-A5/GpH7-B3/GpL16-k0 (=100). Further, in test [2], the He/Con_2b was 89.2 % of GpH7-A5/GpH7-B3/GpL16-k0 (=100).

B15: GpH7-A5/GpH7-B3 variant Y300_16H/GpL16-k0 (He Ab) (antibody, human IgG1, kappa)
heavy 1: not shown
heavy 2: not shown
light: B1 light
notes: as for B1
For the molecule B15, the He/Con_1a in test [1] was 111 % of GpH7-A5/GpH7-B3/GpL16-k0 (=100). Besides, in test [2], the He/Con_2b was 87 % of GpH7-A5/GpH7-B3/GpL16-k0 (=100).

B16: GpH7-A5/GpH7-B3 variant Y300_01G/GpL16-k0 (He Ab) (antibody, human IgG1, kappa)
heavy 1: not shown
heavy 2: not shown
light: B1 light
notes: as for B1
Regarding B16, the He/Con_1a in test [1] is 116 % of GpH7-A5/GpH7-B3/GpL16-k0 (=100). The He/Con_2b in test [2] is 48.4 % of GpH7-A5/GpH7-B3/GpL16-k0 (=100).

B17: heterodimerized antibody GpH7-A5/GpH7-B3 variant E333_12R/GpL16-k0 (antibody, human IgG1, kappa)
heavy 1: not shown
heavy 2: not shown
light: B1 light
notes: as for B4
On to B17, for which the He/Con_1a in test [3] was 102 % of GpH7-A5/GpH7-B3/GpL16-k0 (=100). For the same molecule, in test [4], the He/Con_2b is 80.4 % of GpH7-A5/GpH7-B3/GpL16-k0 (=100).

B18: heterodimerized antibody GpH7-A5/GpH7-B3 variant E333_08L/GpL16-k0 (antibody, human IgG1, kappa)
heavy 1: not shown
heavy 2: not shown
light: B1 light
notes: as for B4
For B18, the He/Con_1a in test [3] is 102 % of GpH7-A5/GpH7-B3/GpL16-k0 (=100). For the same molecule, in test [4], the He/Con_2b was 95 % of GpH7-A5/GpH7-B3/GpL16-k0 (=100).

B19: GpH7-A5/GpH7-B3 variant E269_18N/GpL16-k0 (He Ab) (antibody, human IgG1, kappa)
heavy 1: not shown
heavy 2: not shown
light: B1 light
notes: as for B1
For B19, in test [1], the He/Con_1a is 102 % of GpH7-A5/GpH7-B3/GpL16-k0 (=100). Also, in test [2], the He/Con_2b was 44.8 % of GpH7-A5/GpH7-B3/GpL16-k0 (=100).

B20: GpH7-A5/GpH7-B3 variant Y300_13S/GpL16-k0 (He Ab) (antibody, human IgG1, kappa)
heavy 1: not shown
heavy 2: not shown
light: B1 light
notes: as for B1
As to B20, the He/Con_1a in test [1] is 111 % of GpH7-A5/GpH7-B3/GpL16-k0 (=100). Besides, the He/Con_2b in test [2] is 53.9 % of GpH7-A5/GpH7-B3/GpL16-k0 (=100).

B21: GpH7-A5/GpH7-B3 variant Y300_14T/GpL16-k0 (He Ab) (antibody, human IgG1, kappa)
heavy 1: not shown
heavy 2: not shown
light: B1 light
notes: as for B1
In the case of B21, the He/Con_1a in test [1] was 112 % of GpH7-A5/GpH7-B3/GpL16-k0 (=100). Besides, the He/Con_2b in test [2] is 55.6 % of GpH7-A5/GpH7-B3/GpL16-k0 (=100).
